Measured values reported in the Human Domainome abundance scans (Beltran et al. 2025).
± gives the uncertainty stated by the source.

B1: Chromodomain-helicase-DNA-binding protein 7, residues 2564 to 2605; numbered along this chain, Q9P2D1 (parent)
chain: DPDTRIPVINLEDGTRLVGEDAPKNKDLVEWLKLHPTYTVDM

Variants of: B1
Assay: abundance fitness (aPCA) (normalised: wild type 0, dead -1); higher = more abundant; growth selection in yeast, the domain comes from the species named
Conditions: Homo sapiens

Row | Variant | abundance fitness
1 | M42G | -0.096 ± 0.15
2 | M42P | -0.569 ± 0.3
3 | M42F | -0.244 ± 0.087
4 | M42T | 0.142 ± 0.083
5 | M42Y | -0.027 ± 0.069
6 | M42R | -0.092 ± 0.3
7 | M42Q | 0.108 ± 0.12
8 | M42W | -0.438 ± 0.26
9 | M42A | 0.132 ± 0.081
10 | M42H | -0.04 ± 0.27
11 | M42K | -0.528 ± 0.36
12 | M42I | -0.189 ± 0.097
13 | M42V | -0.065 ± 0.061
14 | M42L | -0.172 ± 0.07
15 | M42S | 0.111 ± 0.06
16 | M42N | 0.025 ± 0.059
17 | D41V | -0.793 ± 0.055
18 | D41T | -0.586 ± 0.063
19 | D41S | -0.438 ± 0.057
20 | D41P | -0.453 ± 0.12
21 | D41W | -0.84 ± 0.2
22 | D41R | -0.841 ± 0.058
23 | D41Q | -0.422 ± 0.48
24 | D41N | -0.343 ± 0.058
25 | D41M | -0.531 ± 0.072
